Molecular target: T1, GST-AFF1 (AUXIN RESPONSE FACTOR F-BOX1, At3g49150) (Arabidopsis thaliana, UniProt Q9M3B7 1-630)
T1 sequence (looked up): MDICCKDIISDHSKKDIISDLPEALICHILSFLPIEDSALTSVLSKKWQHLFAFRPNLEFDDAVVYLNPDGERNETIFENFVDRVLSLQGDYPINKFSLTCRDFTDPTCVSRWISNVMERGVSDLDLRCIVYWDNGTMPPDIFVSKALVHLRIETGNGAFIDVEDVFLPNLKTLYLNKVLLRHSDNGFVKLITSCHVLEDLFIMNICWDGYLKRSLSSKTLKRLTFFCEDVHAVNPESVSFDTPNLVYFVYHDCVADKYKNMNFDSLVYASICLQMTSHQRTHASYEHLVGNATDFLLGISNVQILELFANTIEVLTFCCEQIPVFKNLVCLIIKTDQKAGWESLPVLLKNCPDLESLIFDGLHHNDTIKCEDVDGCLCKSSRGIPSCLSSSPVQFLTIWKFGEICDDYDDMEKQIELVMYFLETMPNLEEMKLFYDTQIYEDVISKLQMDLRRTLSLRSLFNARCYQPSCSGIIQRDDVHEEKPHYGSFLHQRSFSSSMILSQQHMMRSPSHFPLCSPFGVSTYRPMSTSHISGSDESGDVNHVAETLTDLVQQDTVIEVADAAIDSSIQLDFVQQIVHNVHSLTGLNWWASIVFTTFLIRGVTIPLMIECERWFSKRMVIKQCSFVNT
Experiment: pull-down

binding result: binds
B1: His-ASK1 (ARABIDOPSIS SKP1-LIKE 1) (natural protein, Arabidopsis thaliana, UniProt Q39255 1-160, looked up)
chain: MSAKKIVLKSSDGESFEVEEAVALESQTIAHMVEDDCVDNGVPLPNVTSKILAKVIEYCKRHVEAAASKAEAVEGAATSDDDLKAWDADFMKIDQATLFELILAANYLNIKNLLDLTCQTVADMIKGKTPEEIRTTFNIKNDFTPEEEEEVRRENQWAFE
